Molecular target: T1, His–PARP1, full length, recombinant (called GFP-PARP1 / PARP1–GFP in the results and legend) (UniProt P09874 1-1014)
T1 construct: PARP1, full length, cloned into NcoI and BamHI sites of pNIC28; The methods describe only His–PARP1 from pNIC28 with no GFP; Whether GFP was on the protein is open; It was held on PARP1-trap beads; also called pNIC28–PARP1; source: E. coli Rosetta (DE3), purified (HisTrap, SEC Superdex 200)
Assay: pull-down; PARP1 (2.5 µM) held on PARP1-trap beads, TEX264 (2.5 µM) added in 50 mM HEPES pH 7.4, 500 mM NaCl, 0.01% Triton X-100, 1 mM TCEP, 2 h at 4 °C; washes with 0.1% Triton X-100; western blot
Details: both partners purified

T1 sequence (P09874 whole entry): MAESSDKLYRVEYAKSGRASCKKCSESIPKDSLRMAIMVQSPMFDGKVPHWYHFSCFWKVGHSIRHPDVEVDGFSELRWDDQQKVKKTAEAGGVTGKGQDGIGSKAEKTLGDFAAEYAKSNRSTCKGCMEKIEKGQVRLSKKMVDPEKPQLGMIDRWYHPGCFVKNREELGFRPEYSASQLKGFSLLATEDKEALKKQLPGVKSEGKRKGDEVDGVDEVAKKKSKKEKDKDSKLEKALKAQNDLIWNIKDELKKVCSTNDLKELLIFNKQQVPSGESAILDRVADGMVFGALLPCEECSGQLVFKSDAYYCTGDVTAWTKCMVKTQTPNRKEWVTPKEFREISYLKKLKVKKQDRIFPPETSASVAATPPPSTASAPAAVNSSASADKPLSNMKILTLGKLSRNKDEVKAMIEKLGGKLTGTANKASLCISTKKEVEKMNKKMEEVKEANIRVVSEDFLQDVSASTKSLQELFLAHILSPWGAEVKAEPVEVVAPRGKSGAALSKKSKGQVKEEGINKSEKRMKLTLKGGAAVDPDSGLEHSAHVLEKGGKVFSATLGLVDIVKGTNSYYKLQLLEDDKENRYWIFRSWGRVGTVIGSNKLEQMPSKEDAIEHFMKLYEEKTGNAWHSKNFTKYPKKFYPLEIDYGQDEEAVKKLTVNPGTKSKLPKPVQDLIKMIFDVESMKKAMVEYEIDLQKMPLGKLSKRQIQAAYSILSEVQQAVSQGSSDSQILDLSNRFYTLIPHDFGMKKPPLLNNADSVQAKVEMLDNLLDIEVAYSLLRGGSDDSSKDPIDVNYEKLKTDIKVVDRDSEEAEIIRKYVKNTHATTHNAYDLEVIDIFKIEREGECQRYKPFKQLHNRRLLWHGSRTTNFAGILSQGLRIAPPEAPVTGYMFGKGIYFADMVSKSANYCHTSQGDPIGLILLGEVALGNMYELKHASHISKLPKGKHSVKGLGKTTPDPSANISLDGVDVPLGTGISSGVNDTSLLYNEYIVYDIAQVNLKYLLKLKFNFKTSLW

B1: His–TEX264 (34-313) (domain or fragment, UniProt Q9Y6I9 34-313, looked up)
chain: VEVSAGSPPIRNVTVAYKFHMGLYGETGRLFTESCSISPKLRSIAVYYDNPHMVPPDKCRCAVGSILSEGEESPSPELIDLYQKFGFKVFSFPAPSHVVTATFPYTTILSIWLATRRVHPALDTYIKERKLCAYPRLEIYQEDQIHFMCPLARQGDFYVPEMKETEWKWRGLVEAIDTQVDGTGADTMSDTSSVSLEVSPGSRETSAATLSPGASSRGWDDGDTRSEHSYSESGASGSSFEELDLEGEGPLGESRLDPGTEPLGTTKWLWEPTAPEKGKE
notes: the printed UniProt entry Q9Y6I9 is the human protein; The longest recombinant TEX264 described in the methods; also called TEX264^WT (variant 1); source: E. coli Rosetta (DE3), pCold cold shock system, purified (HiTrap Q FF, SEC Superdex 200)
B1: binds.

B2: His–TEX264–Cter (186-313) (domain or fragment, UniProt Q9Y6I9 186-313, looked up)
chain: RQGDFYVPEMKETEWKWRGLVEAIDTQVDGTGADTMSDTSSVSLEVSPGSRETSAATLSPGASSRGWDDGDTRSEHSYSESGASGSSFEELDLEGEGPLGESRLDPGTEPLGTTKWLWEPTAPEKGKE
notes: also called C-terminal half of TEX264; variant 2
B2: binds.

Reference: publication PMC13278974, “Nucleophagy removes cytotoxic trapped PARP1” (Nature Cell Biology, 2026)
